How the values were obtained:
[1] = molecular target: E. coli Hfq V22A (E. coli) (UniProt P0A6X3); assay: crystal structure; co-crystal of Hfq V22A with A17 RNA; 15% PEGSH, 0.15 M ammonium acetate, 0.1 M trisodium citrate pH 5; 2.1 Å
[2] = molecular target: E. coli Hfq V22A (E. coli) (UniProt P0A6X3); assay: crystal structure; co-crystal of Hfq V22A with pA4 RNA; 22.5% PEGSB, 0.2 M LiSO4, 0.05 M zinc acetate, 0.1 M Bis-Tris pH 7.5; roughly 3.0 Å

stoichiometry N [1]: 6
stoichiometry N [2]: 6
Substance: E. coli Hfq V22A (from UniProt P0A6X3 1-102) (natural protein)

Source: PMC11770335
